Legend:
[1] = tested on: cytosolic tail of APP; details: mutations at μ4-binding site; previously identified; ref [18]; cited from earlier work
Excerpt: This tyrosine-based signal is related to the YXXØ motif, which is the signal contained in the cytosolic tail of transmembrane proteins that binds to a different site on the μ2 subunit of AP-2 [28], or on the μ3A subunit of AP-3 [30]. In this study, we wanted to determine whether this putative second binding site on μ4, referred here as the μ2-binding site (Figure 1, A and B), played any role in the binding to the YKFFE signal of APP ...

[2] = tested on: APP-GFP; assay: Distribution of APP-GFP in MDA-MB-231 cells; assay type: cell-based, human; details: for change in distribution of APP: HA-epitope-tagged constructs, 24 h after transfection, EEA1/TGN46 immunofluorescence; for APP redistribution (figure title): APP-GFP F615P/D664A, EEA1, TGN46 staining
Description: H4 human neuroglioma or MDA-MB-231 human mammary gland epithelial cells obtained from the American Type Culture Collection (Manassas, VA) were maintained in DMEM (H4) or DMEM/F12 (MDA-MB-231) supplemented with 10% (v/v) fetal bovine serum (FBS), 100 U/ml penicillin and 100 µg/ml streptomycin (Life Technologies). Transfections were carried out using Lipofectamine 2000 (Life Technologies) for 1 h at 37°C in the absence of FBS, and cells were analyzed 16, 24 or up to 36-h after transfection, for which we observed no notorious signs of loss in cell viability. SDS-PAGE, immunoblotting, and immunoprecipitation were performed as described. H4 cells after 16 h of transfection were washed twice with cold phosphate buffered saline supplemented with 0.1 mM CaCl2 and 1 mM MgCl2 (PBS-Ca/Mg), and incubated at 4°C for 1 h in lysis buffer (50 mM Tris-HCl pH 7.4, 150 mM NaCl, 1 mM EDTA, 1% (v/v) Triton X-100, and a cocktail of protease inhibitors). Soluble extracts were subjected to overnight immunoprecipitation at 4°C either with rabbit anti-HA-epitope antibody (kindly provided by R. Hegde, MRC Laboratory of Molecular Biology, Cambridge, UK) or with mouse antibody to the ε subunit of AP-4 (BD Biosciences) immobilized onto protein A- or a 1∶1 mix of protein A- and protein-G Sepharose beads (GE Healthcare), respectively. Soluble extracts and immunoprecipitates were processed by SDS-PAGE and blotted with horseradish peroxidase-conjugated mouse anti-HA antibody (Macs Miltenyi Biotec) or with mouse antibody to the ε subunit of AP-4.
Indirect immunofluorescence staining of fixed, permeabilized cells was performed as previously described, using sheep polyclonal antibody anti-TGN46 (Serotec), and mouse monoclonal antibody anti-EEA1 (BD Biosciences) or rabbit polyclonal antibody anti-EEA1 (Santa Cruz Biotechnology), followed by the secondary antibodies Alexa-647–conjugated donkey anti-mouse IgG, Alexa-594–conjugated donkey anti-rabbit IgG, or Alexa-594– or -647–conjugated donkey anti-sheep IgG (Life Technologies). Images were acquired either with an Olympus FluoView FV1000 scanning unit fitted on an inverted Olympus IX81 microscope and equipped with a PlanApo 60x oil immersion objective (NA 1.40; Olympus, Melville, NY), using similar settings as described previously, or with an AxioObserver.D1 microscope equipped with a PlanApo 63x oil immersion objective (NA 1.4), and an AxioCam MRm digital camera (Carl Zeiss). Quantitative analysis of colocalization was performed as we previously described, with minor modifications. Briefly, 12-bit images were acquired under identical settings avoiding signal saturation, and corrected for noise, cross-talk, and background signals on each set of images. The signals of TGN46 or EEA1 in each set of images were used in Image J (version 1.44o; Wayne Rasband, NIH, http://imagej.nih.gov) to define masks regarded as Golgi/TGN or early endosomes localization, respectively. The percentage of localization in each compartment was calculated for each cell (n = 10–15) subtracting either the Golgi/TGN or the early endosomes mask from the total integrated pixel intensity of APP-GFP, and the remainder of the signal was considered as in the ‘rest of the cell’.
We next examined the functional role of both the μ2- and the μ4-binding site of μ4 on the intracellular trafficking of APP. We have shown that the YKFFE-μ4 interaction is functional in vivo because its disruption by depletion of μ4 by RNAi produces a shift in the distribution of APP from endosomes to the TGN [18]. To evaluate now the function of each binding site for tyrosine-based signals, we tested a dominant-negative effect by overexpressing untagged or HA-epitope-tagged full-length wild-type μ4 or the variants untagged or HA-epitope-tagged μ4-D190A, μ4-D190S, μ4-F255A or μ4-R283D in H4 neuroglioma cells, as well as in MDA-MB-231 mammary gland epithelial cells, and examined by immunofluorescence the distribution of APP-GFP. […]

B1: H256A: μ4 mutant, μ4-binding site, reported previously (protein, UniProt O00189 1-453, looked up, variant H256A)
AP-4 complex subunit mu-1: MISQFFILSSKGDPLIYKDFRGDSGGRDVAELFYRKLTGLPGDESPVVMHHHGRHFIHIRHSGLYLVVTTSENVSPFSLLELLSRLATLLGDYCGSLGEGTISRNVALVYELLDEVLDYGYVQTTSTEMLRNFIQTEAVVSKPFSLFDLSSVGLFGAETQQSKVAPSSAASRPVLSSRSDQSQKNEVFLDVVERLSVLIASNGSLLKVDVQGEIRLKSFLPSGSEMRIGLTEEFCVGKSELRGYGPGIRVDEVSFASSVNLDEFESHRILRLQPPQGELTVMRYQLSDDLPSPLPFRLFPSVQWDRGSGRLQVYLKLRCDLLSKSQALNVRLHLPLPRGVVSLSQELSSPEQKAELAEGALRWDLPRVQGGSQLSGLFQMDVPGPPGPPSHGLSTSASPLGLGPASLSFELPRHTCSGLQVRFLRLAFRPCGNANPHKWVRHLSHSDAYVIRI
effect of mutation on binding to the APP YKFFE signal [1]: null effect

B2: µ4-D190A-HA: HA-epitope-tagged full-length μ4-D190A, overexpressed (protein)
chain: MISQFFILSSKGDPLIYKDFRGDSGGRDVAELFYRKLTGLPGDESPVVMHHHGRHFIHIRHSGLYLVVTTSENVSPFSLLELLSRLATLLGDYCGSLGEGTISRNVALVYELLDEVLDYGYVQTTSTEMLRNFIQTEAVVSKPFSLFDLSSVGLFGAETQQSKVAPSSAASRPVLSSRSDQSQKNEVFLAVVERLSVLIASNGSLLKVDVQGEIRLKSFLPSGSEMRIGLTEEFCVGKSELRGYGPGIRVDEVSFHSSVNLDEFESHRILRLQPPQGELTVMRYQLSDDLPSPLPFRLFPSVQWDRGSGRLQVYLKLRCDLLSKSQALNVRLHLPLPRGVVSLSQELSSPEQKAELAEGALRWDLPRVQGGSQLSGLFQMDVPGPPGPPSHGLSTSASPLGLGPASLSFELPRHTCSGLQVRFLRLAFRPCGNANPHKWVRHLSHSDAYVIRI
modifications: left off: HA, end not stated, kept
change in distribution of APP [2]: minor redistribution of APP to the TGN

B3: µ4-F255A-HA: HA-epitope-tagged full-length μ4-F255A, overexpressed (protein)
chain: MISQFFILSSKGDPLIYKDFRGDSGGRDVAELFYRKLTGLPGDESPVVMHHHGRHFIHIRHSGLYLVVTTSENVSPFSLLELLSRLATLLGDYCGSLGEGTISRNVALVYELLDEVLDYGYVQTTSTEMLRNFIQTEAVVSKPFSLFDLSSVGLFGAETQQSKVAPSSAASRPVLSSRSDQSQKNEVFLDVVERLSVLIASNGSLLKVDVQGEIRLKSFLPSGSEMRIGLTEEFCVGKSELRGYGPGIRVDEVSAHSSVNLDEFESHRILRLQPPQGELTVMRYQLSDDLPSPLPFRLFPSVQWDRGSGRLQVYLKLRCDLLSKSQALNVRLHLPLPRGVVSLSQELSSPEQKAELAEGALRWDLPRVQGGSQLSGLFQMDVPGPPGPPSHGLSTSASPLGLGPASLSFELPRHTCSGLQVRFLRLAFRPCGNANPHKWVRHLSHSDAYVIRI
modifications: left off: HA, end not stated, kept
APP redistribution (figure title) ([2]; 24 h): APP redistributes from endosomes to the TGN | change in distribution of APP [2]: strong redistribution of APP from endosomes to the TGN

B4: µ4-R283D-HA: HA-epitope-tagged full-length μ4-R283D, overexpressed (protein)
chain: MISQFFILSSKGDPLIYKDFRGDSGGRDVAELFYRKLTGLPGDESPVVMHHHGRHFIHIRHSGLYLVVTTSENVSPFSLLELLSRLATLLGDYCGSLGEGTISRNVALVYELLDEVLDYGYVQTTSTEMLRNFIQTEAVVSKPFSLFDLSSVGLFGAETQQSKVAPSSAASRPVLSSRSDQSQKNEVFLDVVERLSVLIASNGSLLKVDVQGEIRLKSFLPSGSEMRIGLTEEFCVGKSELRGYGPGIRVDEVSFHSSVNLDEFESHRILRLQPPQGELTVMDYQLSDDLPSPLPFRLFPSVQWDRGSGRLQVYLKLRCDLLSKSQALNVRLHLPLPRGVVSLSQELSSPEQKAELAEGALRWDLPRVQGGSQLSGLFQMDVPGPPGPPSHGLSTSASPLGLGPASLSFELPRHTCSGLQVRFLRLAFRPCGNANPHKWVRHLSHSDAYVIRI
modifications: left off: HA, end not stated, kept
APP redistribution (figure title) ([2]; 24 h): APP redistributes from endosomes to the TGN | change in distribution of APP [2]: strong redistribution of APP from endosomes to the TGN

B5: S257A: μ4 mutant, μ4-binding site, reported previously (protein, UniProt O00189 1-453, looked up, variant S257A)
AP-4 complex subunit mu-1: MISQFFILSSKGDPLIYKDFRGDSGGRDVAELFYRKLTGLPGDESPVVMHHHGRHFIHIRHSGLYLVVTTSENVSPFSLLELLSRLATLLGDYCGSLGEGTISRNVALVYELLDEVLDYGYVQTTSTEMLRNFIQTEAVVSKPFSLFDLSSVGLFGAETQQSKVAPSSAASRPVLSSRSDQSQKNEVFLDVVERLSVLIASNGSLLKVDVQGEIRLKSFLPSGSEMRIGLTEEFCVGKSELRGYGPGIRVDEVSFHASVNLDEFESHRILRLQPPQGELTVMRYQLSDDLPSPLPFRLFPSVQWDRGSGRLQVYLKLRCDLLSKSQALNVRLHLPLPRGVVSLSQELSSPEQKAELAEGALRWDLPRVQGGSQLSGLFQMDVPGPPGPPSHGLSTSASPLGLGPASLSFELPRHTCSGLQVRFLRLAFRPCGNANPHKWVRHLSHSDAYVIRI
effect of mutation on binding to the APP YKFFE signal [1]: null effect

B6: μ4-D190S: D190S mutant of μ4 (C-terminal domain in vitro; full-length, HA-tagged or untagged, in cells) (protein)
chain: QQSKVAPSSAASRPVLSSRSDQSQKNEVFLSVVERLSVLIASNGSLLKVDVQGEIRLKSFLPSGSEMRIGLTEEFCVGKSELRGYGPGIRVDEVSFHSSVNLDEFESHRILRLQPPQGELTVMRYQLSDDLPSPLPFRLFPSVQWDRGSGRLQVYLKLRCDLLSKSQALNVRLHLPLPRGVVSLSQELSSPEQKAELAEGALRWDLPRVQGGSQLSGLFQMDVPGPPGPPSHGLSTSASPLGLGPASLSFELPRHTCSGLQVRFLRLAFRPCGNANPHKWVRHLSHSDAYVIRI
modifications: left off: GST, N-terminal, cleaved
effect on localization of APP-GFP in endosomes ([2]; either HA-epitope-tagged or untagged, 24 h): little or no effect

B7: μ4-R283D: μ4 with the single mutation R283D at the μ4-binding site (C-terminal domain; untagged full-length in b45) (protein)
chain: QQSKVAPSSAASRPVLSSRSDQSQKNEVFLDVVERLSVLIASNGSLLKVDVQGEIRLKSFLPSGSEMRIGLTEEFCVGKSELRGYGPGIRVDEVSFHSSVNLDEFESHRILRLQPPQGELTVMDYQLSDDLPSPLPFRLFPSVQWDRGSGRLQVYLKLRCDLLSKSQALNVRLHLPLPRGVVSLSQELSSPEQKAELAEGALRWDLPRVQGGSQLSGLFQMDVPGPPGPPSHGLSTSASPLGLGPASLSFELPRHTCSGLQVRFLRLAFRPCGNANPHKWVRHLSHSDAYVIRI
modifications: left off: GST, N-terminal, cleaved
APP redistribution (figure title) ([2]; 24 h): APP redistributes from endosomes to the TGN
